According to patent US10293027B2, “Methods for treating metabolic disorders using FGF” (Salk Institute for Biological Studies, priority 2010, dated 2019):
“Also recorded” adds a separate entry of the source.

Legend:
ob/ob mice [1] = assay: Acute effects of FGF-1 on blood glucose: dose response and time courses after s.c. and i.v. administration (Example 6); type: in vivo, mouse; conditions: for duration of blood glucose reduction after intravenous administration: 0.2 mg/kg i.v.
Experimental: FIG. 8. Dose response effect of FGF-1 (s.c., mg/kg) on blood glucose levels of ob/ob mice.
FIG. 9. Effect of FGF-1 (s.c., 0.5 mg/kg) on blood glucose levels of ob/ob mice.
FIG. 10. Effect of intravenous FGF1 (0.2 mg/kg) on blood glucose levels of ob/ob mice.
In order to establish the acute effects of FGF-1 on blood glucose levels, dose response curves (FIG. 8) and time courses after subcutaneous (FIG. 9) and intravenous (FIG. 10) administration were performed.

ob/ob mice [2] = assay: Insulin tolerance test after 4 weeks of chronic FGF-1 administration; type: in vivo, mouse; conditions: after 4 weeks of chronic administration
Experimental: Glucose tolerance tests (GTT) were conducted after overnight fasting. Mice were injected intraperitoneally (i.p.) with 1 g of glucose per/kg body weight, and blood glucose was monitored at 0, 15, 30, 60, 90, and 120 min using a OneTouch Ultra glucometer (Lifescan Inc). Insulin tolerance tests (ITT) were conducted after overnight fasting. Mice were injected i.p. with 0.5 U of insulin/kg body weight (Humulin R; Eli Lilly), and blood glucose was monitored at 0, 15, 30, 60, 90, and 120 min using a OneTouch Ultra glucometer (Lifescan Inc). Real-time metabolic analyses were conducted in an undisturbed room under 12 h/12 h light/dark cycles using a Comprehensive Lab Animal Monitoring System (Columbus Instruments).
These tests were carried out as described above.

[3] = system: diet-induced obesity mice (C57BL/6); assay: Single s.c. FGF-1 injection, blood glucose in DIO mice; type: in vivo, mouse; conditions: single s.c. injection 0.5 mg/kg
Text: FIG. 25. FGF1 effects in DIO mice.
(§1) The ob/ob model is considered to represent a very severe diabetic disease. In order to investigate the effect of FGF-1 on less severe diabetic/metabolic disorder models, we tested blood glucose levels in db/db mice and diet induced obese mice.

[4] = system: Glucose Transporter 1 (Glut1); assay: Glut1 expression in 3T3-L1 adipocytes; type: cell-based, mouse
Experimental: FIGS. 6A-6B. FGF-1 and rosiglitazone stimulation of Glut1 expression in 3T3-L1 adipocytes. 3T3-L1 adipocytes were treated with FGF-1 (+=50 ng/ml, ++=100 ng/ml), rosiglitazone (1 μM), or in combination. (A) mRNA (top) and protein (bottom) levels of Glucose Transporter 1 (Glut1); (B) mRNA (top) and protein (bottom) levels of Glucose Transporter 4 (Glut4).
3T3-L1 mouse pre-adipocytes were from American Type Culture Collection (ATCC, Rockville, Md.). Cells were maintained at sub-confluence in growth medium (GM) containing 10% calf serum in Dulbecco's modified Eagle's medium (DMEM) at 37° C. and 5% CO2. For standard adipocyte differentiation, cells were stimulated at 2 days post confluency (referred as day 0) with differentiation medium (DM) containing 10% fetal bovine serum (FBS), 5 μg/ml insulin, 1 μM dexamethasone, and […] 3-isobutyl-1-methylxanthine (IBMX) for 48 hours. […]
Total RNA was isolated from mouse tissue and cells using TRIzol reagent (Invitrogen). cDNA was synthesized from 1 μg of DNase-treated total RNA using SuperScript II reverse transcriptase (Invitrogen). mRNA levels were quantified by QPCR with SYBR Green (Invitrogen). Samples were run in technical triplicates, and relative mRNA levels were calculated by using the standard curve methodology and normalized against 36B4 mRNA levels in the same samples.

[5] = system: db/db leptin receptor mutant diabetic mice; assay: Single s.c. FGF-1 injection, blood glucose in db/db mice; type: in vivo, mouse; conditions: single s.c. injection 0.5 mg/kg
Text: FIG. 24. FGF-1 effects in db/db mice. […] The db/db model is considered to represent a […] diabetes model than ob/ob.
as §1

ob/ob mice [6] = assay: Single s.c. injection of human FGF1 or other FGFs, blood glucose in ob/ob mice (Examples 13, 14); type: in vivo, mouse; conditions: 0.5 mg/kg s.c.
Experimental: FIG. 26. Human recombinant FGF-1 is effective in mice.
FIG. 27. Comparison of FGF1, FGF2, FGF9, and FGF10 effects. Single subcutaneous injection of FGFs (0.5 mg/kg) in ob/ob mice.
As human recombinant FGF-1 is already being used in the clinic, the present methods of using it to treat metabolic disorders offer a straightforward regulatory path to treatment.
As explained above, the FGF family of factors bind to members of the FGFR family of receptors with different specificities. FGF-1 binds preferentially to FGFR1 and FGFR4, and can be internalized into a cell expressing these receptors. To determine if other FGF proteins have similar metabolic effects as FGF-1, we tested blood glucose in ob/ob mice treated with FGF-2, FGF-9, and FGF-10 (0.5 mg/kg s.c.). This combination of FGF proteins binds to the spectrum of FGFRs.

B1: FGF-1: recombinant mouse FGF-1 (acidic fibroblast growth factor), a secreted protein that binds heparin and FGF receptors (protein, UniProt P61148 16-155, looked up)
Fibroblast growth factor 1: FNLPLGNYKKPKLLYCSNGGHFLRILPDGTVDGTRDRSDQHIQLQLSAESAGEVYIKGTETGQYLAMDTEGLLYGSQTPNEECLFLERLEENHYNTYTSKKHAEKNWFVGLKKNGSCKRGPRTHYGQKAILFLPLPVSSD
What does the source list for B1?
duration of blood glucose reduction after intravenous administration (ob/ob mice [1]; ob/ob mice): significantly reduced blood glucose for at least one week; also recorded: much longer lasting (at least one week); duration of blood glucose reduction after intravenous administration (ob/ob mice [1]; ob/ob mice, listed as FGF1): last up to one week; dose dependence of glucose reduction (ob/ob mice [1]; ob/ob mice): dramatic dose-dependent reduction of glucose levels; EC50 of glucose lowering effect (ob/ob mice [1]; s.c., blood glucose of ob/ob mice, dose response): 0.25 mg/kg; dose at which maximum glucose lowering effects are reached (ob/ob mice [1]; s.c., ob/ob mice): 0.5 mg/kg; onset of effect of subcutaneous dosing (ob/ob mice [1]; s.c., ob/ob mice): effective within a matter of hours; insulin tolerance / insulin sensitivity (ITT) (ob/ob mice [2]): increased insulin sensitivity; blood glucose in diet-induced obesity mice ([3]; 0.5 mg/kg): effective for reducing blood glucose levels in both systems; blood glucose in diet-induced obesity mice ([3]; listed as FGF1, 0.5 mg/kg): normalizes blood glucose; expression of GLUT1 in combination with rosiglitazone ([4]; 3T3-L1 adipocytes, FGF-1 plus rosiglitazone (1 μM)): acts synergistically with rosiglitazone; expression of GLUT1 ([4]; mouse 3T3-L1 adipocytes, prolonged treatment, FGF-1 50 or 100 ng/ml): induces the expression of GLUT1; blood glucose in db/db mice [5]: effective for reducing blood glucose levels in both systems; also recorded: normalizes blood glucose; blood glucose in ob/ob mice after a single s.c. injection (ob/ob mice [6]): Only FGF1 has glucose normalizing effects
